Laboratory results published in US20050260177A1.

Key:
[1] = target: Ra12 protein (Mycobacterium tuberculosis); test: ELISA, Ra12 on plate, serum 1:1000, well 1
[2] = target: Ra12 protein (Mycobacterium tuberculosis); test: ELISA, Ra12 on plate, serum 1:1000, well 2
[3] = target: Ra12 protein (Mycobacterium tuberculosis); test: ELISA, Ra12 on plate, serum 1:2000, well 1
[4] = target: Ra12 protein (Mycobacterium tuberculosis); test: ELISA, Ra12 on plate, serum 1:2000, well 2
[5] = target: Ra12 protein (Mycobacterium tuberculosis); test: ELISA, Ra12 on plate, serum 1:4000, well 1
[6] = target: Ra12 protein (Mycobacterium tuberculosis); test: ELISA, Ra12 on plate, serum 1:4000, well 2
[7] = target: Ra12 protein (Mycobacterium tuberculosis); test: ELISA, Ra12 on plate, serum 1:8000, well 1
[8] = target: Ra12 protein (Mycobacterium tuberculosis); test: ELISA, Ra12 on plate, serum 1:8000, well 2
[9] = target: Ra12 protein (Mycobacterium tuberculosis); test: ELISA, Ra12 on plate, serum 1:16000, well 1
[10] = target: Ra12 protein (Mycobacterium tuberculosis); test: ELISA, Ra12 on plate, serum 1:16000, well 2
[11] = target: Ra12 protein (Mycobacterium tuberculosis); test: ELISA, Ra12 on plate, serum 1:32000, well 1
[12] = target: Ra12 protein (Mycobacterium tuberculosis); test: ELISA, Ra12 on plate, serum 1:32000, well 2
[13] = target: Ra12 protein (Mycobacterium tuberculosis); test: ELISA, Ra12 on plate, serum 1:64000, well 1
[14] = target: Ra12 protein (Mycobacterium tuberculosis); test: ELISA, Ra12 on plate, serum 1:64000, well 2
[15] = target: Ra12 protein (Mycobacterium tuberculosis); test: ELISA, Ra12 on plate, serum 1:128000, well 1
[16] = target: Ra12 protein (Mycobacterium tuberculosis); test: ELISA, Ra12 on plate, serum 1:128000, well 2
[17] = target: Ra12 protein (Mycobacterium tuberculosis); test: ELISA, Ra12 on plate, serum 1:256000, well 1
[18] = target: Ra12 protein (Mycobacterium tuberculosis); test: ELISA, Ra12 on plate, serum 1:256000, well 2
[19] = target: Ra12 protein (Mycobacterium tuberculosis); test: ELISA, Ra12 on plate, serum 1:512000, well 1
[20] = target: Ra12 protein (Mycobacterium tuberculosis); test: ELISA, Ra12 on plate, serum 1:512000, well 2
[21] = target: Ra12 protein (Mycobacterium tuberculosis); test: ELISA, Ra12 on plate, serum 1:1024000, well 1
[22] = target: Ra12 protein (Mycobacterium tuberculosis); test: ELISA, Ra12 on plate, serum 1:1024000, well 2
[23] = target: Ra12 protein (Mycobacterium tuberculosis); test: ELISA, Ra12 on plate, serum 1:1000, average of 2 wells
[24] = target: Ra12 protein (Mycobacterium tuberculosis); test: ELISA, Ra12 on plate, serum 1:2000, average of 2 wells
[25] = target: Ra12 protein (Mycobacterium tuberculosis); test: ELISA, Ra12 on plate, serum 1:4000, average of 2 wells
[26] = target: Ra12 protein (Mycobacterium tuberculosis); test: ELISA, Ra12 on plate, serum 1:8000, average of 2 wells
[27] = target: Ra12 protein (Mycobacterium tuberculosis); test: ELISA, Ra12 on plate, serum 1:16000, average of 2 wells
[28] = target: Ra12 protein (Mycobacterium tuberculosis); test: ELISA, Ra12 on plate, serum 1:32000, average of 2 wells
[29] = target: Ra12 protein (Mycobacterium tuberculosis); test: ELISA, Ra12 on plate, serum 1:64000, average of 2 wells
[30] = target: Ra12 protein (Mycobacterium tuberculosis); test: ELISA, Ra12 on plate, serum 1:128000, average of 2 wells
[31] = target: Ra12 protein (Mycobacterium tuberculosis); test: ELISA, Ra12 on plate, serum 1:256000, average of 2 wells
[32] = target: Ra12 protein (Mycobacterium tuberculosis); test: ELISA, Ra12 on plate, serum 1:512000, average of 2 wells
[33] = target: Ra12 protein (Mycobacterium tuberculosis); test: ELISA, Ra12 on plate, serum 1:1024000, average of 2 wells

Preimmune sera (antibody)
ELISA absorbance at 450 nm [1]: 0.18 OD450 | ELISA absorbance at 450 nm [2]: 0.18 OD450 | ELISA absorbance at 450 nm [3]: 0.15 OD450 | ELISA absorbance at 450 nm [4]: 0.17 OD450 | ELISA absorbance at 450 nm [5]: 0.15 OD450 | ELISA absorbance at 450 nm [6]: 0.15 OD450 | ELISA absorbance at 450 nm [7]: 0.15 OD450 | ELISA absorbance at 450 nm [8]: 0.15 OD450 | ELISA absorbance at 450 nm [9]: 0.15 OD450 | ELISA absorbance at 450 nm [10]: 0.14 OD450 | ELISA absorbance at 450 nm [11]: 0.14 OD450 | ELISA absorbance at 450 nm [12]: 0.13 OD450 | ELISA absorbance at 450 nm [13]: 0.14 OD450 | ELISA absorbance at 450 nm [14]: 0.13 OD450 | ELISA absorbance at 450 nm [15]: 0.15 OD450 | ELISA absorbance at 450 nm [16]: 0.14 OD450 | ELISA absorbance at 450 nm [17]: 0.15 OD450 | ELISA absorbance at 450 nm [18]: 0.15 OD450 | ELISA absorbance at 450 nm [19]: 0.16 OD450 | ELISA absorbance at 450 nm [20]: 0.16 OD450 | ELISA absorbance at 450 nm [21]: 0.16 OD450 | ELISA absorbance at 450 nm [22]: 0.16 OD450 | ELISA absorbance at 450 nm [23]: 0.18 OD450 | ELISA absorbance at 450 nm [24]: 0.16 OD450 | ELISA absorbance at 450 nm [25]: 0.15 OD450 | ELISA absorbance at 450 nm [26]: 0.15 OD450 | ELISA absorbance at 450 nm [27]: 0.15 OD450 | ELISA absorbance at 450 nm [28]: 0.14 OD450 | ELISA absorbance at 450 nm [29]: 0.13 OD450 | ELISA absorbance at 450 nm [30]: 0.14 OD450 | ELISA absorbance at 450 nm [31]: 0.15 OD450 | ELISA absorbance at 450 nm [32]: 0.16 OD450 | ELISA absorbance at 450 nm [33]: 0.16 OD450
